According to publication PMC3791464 (eLife, 2013):

Key:
[1] = target: Drosophila ORC1–5 (ORC lacking Orc6), purified, 6×His-Orc1 and MBP–Orc4 (Drosophila melanogaster) (UniProt O16810); assay: fluorescence polarisation; fluorescence anisotropy, apparent Kd; 30 nM Orc6 N-terminally labelled with Alexa Fluor 488, ORC1–5 in twofold dilutions from 1 µM to 122 pM; 50 mM Tris HCl pH 7.8, 300 mM KCl, 5% glycerol, 1 mM DTT, 0.1 mg/ml BSA; 1 hr on ice; single-site fit with ligand depletion
[2] = target: T1, Drosophila Orc1 in untagged recombinant ORC (Drosophila melanogaster, UniProt O16810 1-924); assay: SEC; analytical gel filtration of purified, co-expressed untagged Drosophila ORC on a Superose 6 column; elutes as a hexamer of ~390 kDa; conditions: both partners purified
T1 construct: Drosophila Orc1; source: High5 cells co-infected with six baculoviruses, co-purified (Ni, amylose, TEV, gel filtration); not shown: 6×His, N-terminal, cleaved
T1 sequence (looked up): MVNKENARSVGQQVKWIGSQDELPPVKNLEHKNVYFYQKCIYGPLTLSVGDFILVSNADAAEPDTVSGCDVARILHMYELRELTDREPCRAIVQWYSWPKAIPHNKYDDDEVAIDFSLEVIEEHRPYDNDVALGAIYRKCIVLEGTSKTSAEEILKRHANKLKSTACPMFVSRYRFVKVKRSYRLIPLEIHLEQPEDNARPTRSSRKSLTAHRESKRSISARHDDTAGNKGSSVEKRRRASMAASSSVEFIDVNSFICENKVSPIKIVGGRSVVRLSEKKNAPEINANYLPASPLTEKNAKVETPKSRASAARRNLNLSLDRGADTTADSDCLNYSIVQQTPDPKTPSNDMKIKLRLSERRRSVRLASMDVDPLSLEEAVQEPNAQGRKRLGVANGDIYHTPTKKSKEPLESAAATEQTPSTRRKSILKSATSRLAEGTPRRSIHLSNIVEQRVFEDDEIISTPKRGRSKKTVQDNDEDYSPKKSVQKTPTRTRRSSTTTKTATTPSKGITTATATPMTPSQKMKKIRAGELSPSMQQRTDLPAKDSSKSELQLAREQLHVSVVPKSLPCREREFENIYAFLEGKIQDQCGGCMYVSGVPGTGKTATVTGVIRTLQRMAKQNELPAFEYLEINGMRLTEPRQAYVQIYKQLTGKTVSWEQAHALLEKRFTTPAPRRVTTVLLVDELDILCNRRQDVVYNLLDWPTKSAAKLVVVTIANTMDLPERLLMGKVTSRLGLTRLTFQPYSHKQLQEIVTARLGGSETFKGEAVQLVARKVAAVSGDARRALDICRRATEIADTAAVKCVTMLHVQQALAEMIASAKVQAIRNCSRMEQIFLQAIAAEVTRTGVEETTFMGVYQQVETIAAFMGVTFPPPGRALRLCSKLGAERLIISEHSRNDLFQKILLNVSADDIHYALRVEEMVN

[3] = target: T2, Drosophila ORC1–5 (ORC lacking Orc6), purified, 6×His-Orc1 and MBP–Orc4 (Drosophila melanogaster, UniProt O16810 1-924; Q24168 1-618; Q7K2L1 1-721; Q9W102 1-459; Q24169 1-460); assay: fluorescence polarisation; fluorescence anisotropy, apparent Kd; 30 nM Orc6 N-terminally labelled with Alexa Fluor 488, ORC1–5 in twofold dilutions from 1 µM to 122 pM; 50 mM Tris HCl pH 7.8, 300 mM KCl, 5% glycerol, 1 mM DTT, 0.1 mg/ml BSA; 1 hr on ice; single-site fit with ligand depletion; conditions: both partners purified
T2 construct: Drosophila Orc1; Drosophila Orc2, untagged; Drosophila Orc3, untagged; Drosophila Orc4; Drosophila Orc5, untagged; source: High5 cells co-infected with five baculoviruses, purified (Ni, amylose, gel filtration; TEV step omitted); not shown: 6×His, N-terminal, kept; MBP, N-terminal, kept; copies: + + + +

[4] = target: T3, Drosophila ORC1–5 in MBP-tagged ORC for EM (6×His-Orc1, other subunits untagged) (Drosophila melanogaster, UniProt O16810 1-924; Q24168 1-618; Q7K2L1 1-721; Q9W102 1-459; Q24169 1-460); assay: co-purification over several chromatography steps; MBP–Orc6 187–257 co-expressed with 6×His-Orc1 and untagged Orc2–Orc5 in High5 cells; Ni affinity, amylose affinity and gel filtration, TEV step omitted; conditions: partners not purified
T3 construct: Drosophila Orc1; Drosophila Orc2, untagged; Drosophila Orc3, untagged; Drosophila Orc4, untagged; Drosophila Orc5, untagged; source: High5 cells co-infected, co-purified with MBP–Orc6 187–257 (Ni, amylose, gel filtration; TEV step omitted); not shown: 6×His, N-terminal, kept; copies: + + + +

With “Drosophila Orc6-Y225S, N-terminal 6×His (from UniProt Q9Y1B2 1-257) (natural protein)” the fold reduction of affinity against wild type Orc6 [1] was greater than 100 fold.

B1: Drosophila Orc2 in untagged recombinant ORC (natural protein, Drosophila melanogaster, UniProt Q24168 1-618, looked up)
chain: MSASNKGGYKTPRKENLMSIENLTNSEEESEDLNTAMVGNAVESQPKVTSRRSTRRPSPTKKYQAYQKESNGKGQEERIVVNYVEMSDERSSDAEDQEEEESIEESENAARPAAKDLHLIQSEYNVAGTSMFGFNTPKKRDAMALAALNATPCTPKTPKTPRLGVKTPDTKRKKSMDQPKTPAHVRTRVKKQIAKIVADSDEDFSGDESDFRPSDEESSSSSSSSDAGNSSDNDAADDEPKTPSRARRAIVVPVLPKTPSAARLRQSARAKKSNEFVPESDGYFHSHASSKILTSDHTLDRLKNPRLAADRVFSLLSEIKTSAEHEGSINAIMEEYRSYFPKWMCILNEGFNILLYGLGSKHQLLQSFHREVLHKQTVLVVNGFFPSLTIKDMLDSITSDILDAGISPANPHEAVDMIEEEFALIPETHLFLIVHNLDGAMLRNVKAQAILSRLARIPNIHLLASIDHINTPLLWDQGKLCSFNFSWWDCTTMLPYTNETAFENSLLVQNSGELALSSMRSVFSSLTTNSRGIYMLIVKYQLKNKGNATYQGMPFRDLYSSCREAFLVSSDLALRAQLTEFLDHKLVKSKRSVDGSEQLTIPIDGALLQQFLEEQEKK
notes: Drosophila Orc2, no purification tag; source: High5 cells co-infected with six baculoviruses, co-purified (Ni, amylose, TEV, gel filtration)
B1: binds [2].

B2: Drosophila Orc5 in untagged recombinant ORC (natural protein, Drosophila melanogaster, UniProt Q24169 1-460, looked up)
chain: MEAICSSLEPLFPCREAAIETLGELIGDSSETYPSAIYLFGHSGTGKTALTRAFLKECGKRQNVRTAHLNAIECYTTKIMLEILLDSLAPDQGDALKVDNMLDFVEQLRRQAATRVEDQGFLIAVDNAERLRDMDANVLPVLLRLQELTNLNLCVILLSQLPFEKFYNKTGLSEIVCLHLAQYNKAETQRILGSDFQQVRNQLLEQFAQDKKRLEICQEAVTEDFYNNYLNLFLSVFYKACRDVPELQLTARKCLSTYLEPVLDGTVDATDISRLWRHIAGPLRSALTQIYMRIEKPAEEVEDFTAIEDQSVRKLAQSLELPYYAKFLLIAAFLASHNAAKQDKRLFVKHHGKQRKRMQTVNARAKTTEKMSTTLGPKSFSIDRLLAIFYAILEEKVGLTCNLLSQISTLVHLNLLSFVSGEQNIMEGSARLQCTIGLEFVLQIGKVVGFNVRQYLCDFM
notes: Drosophila Orc5; the methods list Orc4 twice and leave Orc5 out of the untagged subunits; source: High5 cells co-infected with six baculoviruses, co-purified (Ni, amylose, TEV, gel filtration)
B2: binds [2].

B3: Drosophila Orc4 in untagged recombinant ORC (natural protein, Drosophila melanogaster, UniProt Q9W102 1-459, looked up)
chain: MPEADRELVSIRRFLKERLQRDYTTLRGYAKERSNVRLLLQRTAEMGESNSLLLLGPRGSGKTTLINSVLADLLPNKSFGENTLIVHLDGNLHTDDRVALKSITVQMQLENAADGKVFGSFAENLAFLLQCLKAGGKHSKSVIFILEEFDLFCAHHNQTLLYNLFDVSQSAQAPICVLGVTCRLDVIELLEKRVKSRFSHRQVFLFPSLRRFEDYVDLCRDLLSLPTGNSLLLAAEKIYNLQNIQSGALYFSRNHFDPGEYGFSPRLRDAWNKQICKVLATQQARSTLQALHDFDISEAYLKNFLFRLVAHLRPQSPHITAEKMAAVGSQFEGDDKIELLCGLSVLELCLIIAIKHHSQIYDRDSFNFEIIYARFSKFAKVSTTMQAVERSIVLKAFEHLRIAELIMPLTGGAGGGVGKVQKEFEMHKLALTYSQIHHCMQRYQALPTEVAQWAQSSLI
notes: Drosophila Orc4; source: High5 cells co-infected with six baculoviruses, co-purified (Ni, amylose, TEV, gel filtration); not shown: MBP, N-terminal, cleaved
B3: binds [2].

B4: Drosophila Orc6, full-length (1–257), N-terminal 6×His (natural protein, Drosophila melanogaster, UniProt Q9Y1B2 1-257, looked up)
chain: MTTLIEQLITKMGLREEPNVLEKTTELVRLLELRSTNVPLQINEYGKIVLCADLASCMIGIAFDKEQALKLSGLRKSQYLNNKRMFEKLLDLNKLASVNDICVQLGLNEVARKAEELMTLFKGVAATEDMGTDTSHPQYATMAVFQACRLLKKKVSKSKLMPFSNLRPSQFQLLEQQWERMIAKHHKESKVPSSTDMEGKLKENQNENIKGHEAKKAHKPPPEDYEIWKARMLAKAQAKLKELEASQSHMDSQLLEA
modifications: Alexa Fluor 488 on the N-terminus (only in the fluorescence anisotropy assay)
notes: Drosophila Orc6, residues 1-257; also called wild-type Orc6; Orc6 WT; source: High5 cells (baculovirus): in lysate of co-infected cells; also purified (HisTrap, gel filtration); not shown: 6×His, N-terminal, kept
B4 was tested, and the Kd [3] was 5 ± 0.7 nM.

B5: Drosophila Orc6 in untagged recombinant ORC (natural protein, Drosophila melanogaster, UniProt Q9Y1B2 1-257, looked up)
chain: B4 chain
notes: Drosophila Orc6, no purification tag; source: High5 cells co-infected with six baculoviruses, co-purified (Ni, amylose, TEV, gel filtration)
B5: binds [2].

B6: Drosophila Orc6 C-terminal domain (187–257), N-terminal 6×His (domain or fragment, Drosophila melanogaster, UniProt Q9Y1B2 187-257, looked up)
chain: KESKVPSSTDMEGKLKENQNENIKGHEAKKAHKPPPEDYEIWKARMLAKAQAKLKELEASQSHMDSQLLEA
modifications: Alexa Fluor 488 on the N-terminus (only in the fluorescence anisotropy assay)
notes: Drosophila Orc6, residues 187-257 (C-terminal domain); not detected in Western blots of whole-cell extract, but seen in the pull-downs; also called Orc6 187–257; Orc6 CTD; source: High5 cells (baculovirus): in lysate of co-infected cells; also purified (HisTrap, gel filtration); not shown: 6×His, N-terminal, kept
B6 gave a Kd [3] of 4.8 ± 0.6 nM.

B7: Drosophila MBP–Orc6 187–257 (domain or fragment, Drosophila melanogaster, UniProt Q9Y1B2 187-257, looked up)
chain: B6 chain
notes: Drosophila Orc6, residues 187-257; also called N-terminally MBP-tagged C-terminal domain of Orc6 (amino acids 187–257); MBP-fusion of the C-terminal domain of Orc6; source: High5 cells co-infected with the ORC1–5 subunits, co-purified (Ni, amylose, gel filtration); not shown: MBP, N-terminal, kept
B7: binds [4].

B8: Drosophila Orc3 in untagged recombinant ORC (natural protein, Drosophila melanogaster, UniProt Q7K2L1 1-721, looked up)
chain: MDPTISVSKGCFVYKNGATRAGKKAASKRKRPAAESSSLLGKEVVQQPFYEEYRKAWNQINDHIADLQHRSYARTLEQLVDFVVGQAERDTPDEVLPTAALLTGINQPDHLSQFTALTQRLHAQRAAMVCVLQSRDCATLKAAVETLVFGLVEDNAEVEQMEDEDEDEDGAERDRKRLRRSQCTMKQLKSWYTNNFDSEQKRRQLVVILPDFECFNASVLQDLILILSAHCGSLPFVLVLGVATAMTAVHGTLPYHVSSKIRLRVFQTQAAPTGLNEVLDKVLLSPKYAFHLSGKTFKFLTHIFLYYDFSIHGFIQGFKYCLMEHFFGGNAFALCTDYSKALGRIKQLTHEDMETIRRLPSFRPYVEQINDCKRIIAVLTDDDYLKKKLPQLLRDCLLHFLLFRCSLEFLTELVGDLPRCPLGKLRRELYVNCLNRAIISTPEYKECLQMLSFLSKDEFVAKVNRALERTEQFLVEEIAPLELGEACTAVLRPKLEAIRLAVDEVVKATMATITTTSPNETRQATDHLTPVASRQELKDQLLQRSKEDKMRHQLNTPTTQFGRALQKTLQLIETQIVQDHLRALQDAPPIHELFVFSDIATVRRNIIGAPRAALHTALNNPHFYMQCKCCELQDQSLLVGTLPDLSVVYKLHLECGRMINLFDWLQAFRSVVSDSDHEEVAQEQIDPQIQARFTRAVAELQFLGYIKMSKRKTDHATRLTW
notes: Drosophila Orc3, no purification tag; source: High5 cells co-infected with six baculoviruses, co-purified (Ni, amylose, TEV, gel filtration)
B8: binds [2].
